The domain aggregation screens of Martell et al. (2025)

Experiment: soluble fraction after stress (log2 fold change); higher = more stays soluble; pooled small domains, quantitative proteomics
Conditions: stress: 75 degC
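Further: 20 min heating vs room temperature control held 20 min.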

| Sequence | soluble fraction (log2) |
| --- | --- |
| HMDRFRYYITEDSVQRGTYPYVDETTLKRFTSQLHKYEQGMISAYGYLEYSKPLTAEQIKDYTLMPSP | -0.0579 |
| HMRIWTPEMIKEYIISSNGKEPLNSHYYSTNHPSIYAAAERIFGSWGNAINAAGLDYNAIRKYK | -0.488 |
| HMITETIGANIKTLRDKFRMSQQDLASKMNTARPVISNWENGKTEPSSSQLLKLAKIFDTSTDKILGNV | 0.0689 |
| HMPPPVERAIRKLGHDLSLARRRRRISQDSMAQRMGASVSTVRRIEKGDPRIPIHFIARAMMILGDLKAL | 0.0447 |
| HMLKAKKIPVSDLEKFKGIVAEDVVSKAKALILPRGSNLSWLSNVAKKNLIAKLKAEGIEYISVYSS | -0.47 |
| HMNGPTPEEKLAVVNAEFVRQYGDEYEELELEGEELEEYYQKALNKEDFEYDIPHLPGWDEP | -0.174 |
| HMSDLFKYSPYKTLTEEQYKITYQIIERLKTDLSNGIPRISIIDGGAGTGKSILGIFLLKLLVDAQN | 0.353 |
| HMIDMQIDTARFGTLGVDDDKIITFPKGLPGFEDERRFFLMDHSGSSKIKWLHSADNPGLALV | -0.0491 |
| HMSFGESLKKLSIALNSIRKLATTDAGKKDPKVADLLGQIRDTFNSYRTHLRKNYPDLYSGIKNQL | -0.977 |
| HMYQPLYEQIKRMLTQSLIDGEWKAGEMIPSEMELAARFKVSQGTVRKAIDELVSENILMRRQGKGTFVH | -0.962 |
| HMGGTFLVRILDPALNIRAQPSLTARINGVIRDKSVYTIVATSFEPKTQITWGKLKSGAGWISIGSKYVKK | -3.4 |
| HMGAQRDFELQLIDVIRQNPGLTYKAYGEKLSVSQATVKRLVAKLKETGSIRREGSQRKGTWIITDD | -1.49 |
| HMGIPIEAYHESLHRHYIDLWELLDTGKETLIDAEGNEVDKIHLLNAIRFNVNGMLHELLKE | -1.91 |
| HMDSPVEEWANRGLAYDPSLVTETMAKLYAKQGQIGLARKAFKRLALIYPEKSVYFAFQLKKLSNN | -2.01 |
| HMDVSASEVGLTGRQTDVLSLMVKGRSNRDIAELLGLSEGTVKIHITAIFKALGVASRTQALVAAARLGLK | -0.82 |
| HMAAEFERKNGIVYFFHSSEKPHLNYPHVHARYGEDTISISLRDFTVIGSFSSKKKQKEAVEYVKNK | -0.829 |
| HMEKAISSLTLEEAKKRLEMVRSEKDASLQIYKETGSETARVTAENYGKEENSLLLHISEMSNIV | 0.425 |
| HMDLHERISSVLLGTGKSNDELAQILGVNKNTISAYKNKHGDLKGIVLEGIVKHFDINPVWLLTGSGTR | -0.577 |
| HMGVSLNELAYRRFKQALVTLSYKPGEYLNTAQVMNDLDMGRTPINQAIHRLANEGLLQVIPRKGVMVS | -2.24 |
| HMVSINETAFIQIKNSSATEIKEKITALKLDELKNVTITADIRTNKLIVVGPKATINKIQELVIELDTES | -0.174 |
| HMAHLSPNDAARLVGVSRPLLNQILDEGRITFFETAGGHRKIKLAAVLAYIKERDEVAAQLAAART | -0.724 |
| HMGTHSAEQVRAAIRAIVAAEDAANPLSDARITELLAMRGIAAARRTVMKYREQLGIPSSAKRRR | -1.94 |
| HMTSVFQNSDGTWGHLTKTVNPLIYTIEYGRRTGFSSREEAEESYQRSLTSYQDQLSKLKKERD | 0.297 |
| HMKQPVPDEIYFKRLANATEALGRYPRASERKKFGLNMSKRRYPTLTDFINKAIELGYVEDFR | -0.833 |
| HMIKSIRELAEVITLWKNQGKTILIAEHRLSYLMDLADRVLYMKDGQIENDFSMADFRKIPPDEISRMGLR | 0.103 |
| HMREEMYGLIGFITTSEVTDTFGQMEIKLENEPEMRINVRTNPGESLARGDAAKIISFNNSNGTFLVELTK | -0.921 |
| HMPYIVNHIHLKSEDPKITADWFVKAFNFEIVSDVVRHFGDRFIVTKAEGGMTINISGVRDGEEL | 0.141 |
| HMYLHSEFSPVTGQELHMKYDDSSTEEDPVMLVEGKDIQGNDFVKKIHLNDVDPENATPAEMTALRVHL | 0.206 |

| Sequence | soluble fraction (log2) |
| --- | --- |
| HMDDNRSLSDLAQQVFKRENIQVSRDTLSLLVSRLGSDRAVSRQEIEKLALFAGSNGKLTEEDIHNALG | 0.0459 |
| HMVNTYILNNKEYPIEIIRKNNKNTYLRVKEGKIIVTTNYLTSSFTINKLIKDNTSFINKALLKEN | -0.71 |
| HMLSSREEKILNYLNEHQIITRKKAQELLETSQSTAGRVLKIMVDNGLIVQYGGSRSIWYELIK | -1.79 |
| HMAGPVLTPEEAEVLRILADHGEMTVDNISAEGKMSAAVVLRGLGVLSAYGLVAPGGPGRWRSE | -0.806 |
| HMDIVLPFSFAKRHGVVLSERQGETELLYLKGLPVRVLAEARRVLRQEFTVRQVEQAVFDKALSESYQN | -0.957 |
| HMFFAGLSPEAARTLDSLPLHSWSSVEQIARQAGLNIETVRKELGLLELSGIALSRQGRFRRA | -1.07 |
| HMTDGLTVPMQGVVIRYKAKKGDKVAVGDAVAVLEAMKMEQNIFANKSGTIKEIYIKEGTTVTPGDVLMSI | -0.315 |
| HMDIMTVGERVKKLAEKQGISLRELAKKAELSYNTVYSITRRGSERVAPDTISRLANALGVNVNELT | -0.263 |
| HMFMKNTEVALAIKGKFSNQTTITSKELVLFLSDLFPELSNKTIPWKINQLKAENLIYQTGRGIYTFN | -2.53 |
| HMTNLKALRESKGVSQQTVADYLGITRQAYGNYETGKRQADYAALLRLAAFFGVSVDALLQP | -1.18 |
| HMIPPGTITIEGAITKVPVFLDGKQIGTVPLTKEDVEPGKYRIRVLGVGRVITIDPGEKENVLFSGEDLGL | -0.0563 |
| HMGTTKGVVDVTVPNGRASQHVKLVVIDDDGGRVVYDGTNAPGDRIVKSVSGSGNVRVQIYLNNALVQEQS | -0.491 |
| HMKHRTQMDIQQLPAIEGKGGFEYKISIIHLSTRIKYSEIHDNYNTTTIAKVYENAIERLPPF | -2.39 |
| HMENIDVGQDYKVTMNTIQNLMKTGLVTGTQYKELLREMGVHSGMGAITAQQHQIALDFLNKTMDSA | ≥ 1.04 |
| HMPRELKVRDVSHQHAGHAGWREGGETHFEVDMKADVFAGTSRVAAHRMVNKVLANELASRVHALQLNLS | 0.0164 |
| HMSNNENSILEKLNSFSGKKIKVSHTIGSLAARLDEYPKIKMWLYKRIRENSINEQAYKYLIFIIERKVR | -1.34 |
| HMRPRGTRLPTGWTPSSDALDWTKAEKPGLDPLQTLEKFRDYWTAQPGQKGVKTDWDATWRNWVRREIP | -0.104 |
| HMALHDTLSYEEYLDLGLNGKADSAEKRELVAHALHLGRPNAKTLYKRLNMLQLNRKDVAALLEQ | 0.097 |
| HMDKPIFTLRENEVLYWASMGKTYAEIATIVGISVRTVKFHMGNVVSKLGVSNARQAIRLGVELDLITPMQ | -2.03 |
| HMENMTLGQRIQALRKQHGLSQEGLGERLGVSRQAISRWEMDGAVPEVDKLIAMARLFGVSLNQLLGVE | -0.193 |
| HMLSNLYAVLGVGRRATPDEITAAFDAWNARADAGEPIDDPLWERVRYAWDVLSSPSRRDLYDSLVDDATG | -1.74 |
| HMEVSEGEIREKVESVFSSNPRQAYNYKQISKKLNINDKSERQIVWDVLRKLAGSGKIQEVEHGRFRARAE | -0.162 |
| HMVGEPEPIRYSRFLDEMKSGKLDSVVIQGDTILGVRKDKSQFKTVNPETDYSALIGALDKAGVGIEGRA | 0.132 |
| HMKWYDSDKGFGFLSQEEGEDVYVRSSALPAGVEGLKAGQRVEFGIASGRRGPQALSL | -0.31 |
| HMFTRFTVAQDGWTIGGFTAKEMAVSTAKQHAVDTGKPVTVVAHVAGGGSREAIFNSDGTNDKIWN | 0.065 |
| HMSGTMYATAEVNVRSTYSSDGTIYGTLSKGTAVEITGTTDNGWVRVKYNGTTAYVYADYLSWKAP | -2.41 |
| HMIHSEDMDDHILGHKLVDQYLNKHIEFDNIKKAWNYHTVAIKKFGRYPHRNKILKRESTIEEIDFLKQP | 0.252 |
